Results published in patent US20140199682A1.

Key:
[1] = biological target: hemagglutinin of H3N2 Hong Kong/68 (influenza A virus H3N2); experiment: Biolayer Interferometry (ForteBio Octet), kinetic analysis, apparent affinity
[2] = biological target: hemagglutinin H3 A/Perth/16/2009 (influenza A virus H3); experiment: as above

Substance	Kd [1] [nM]	Kd [2] [nM]
C05 CDR1 variant E27d-A (antibody)	540	28
C05 CDR1 variant F27b-A (antibody)	610	460
C05 CDR1 variant G27c-A (antibody)	450	33
C05 CDR1 variant Y31A (antibody)	640	550
C05 CDR1 variant Y31F (antibody)	420	6.8
C05 CDR1 variant Y31L (antibody)	1400	560
C05 CDR1 variant del(FGEST) (antibody)	690	1300
